The series concerns the molecule itself. Nature of the series: SDS-PAGE; 10 ug of purified protein on 8 to 16% gradient SDS-PAGE, Coomassie blue G250; monomer and dimer bands with expected masses of 19 and 38 kDa.

B1: His-tagged CopS(34-151), periplasmic copper binding loop (sensor domain) of Pseudomonas aeruginosa CopS (domain or fragment, UniProt Q9I033 34-151, looked up)
chain: FSRAIDEHFVELDHMAMSAKLAVFRDELRGLGSEQQMRRREAELLRELARHPDLGLRLNGPDGNLWFERLPQPAHPGLPANRELGAPLEPGNDASPRLTVILDISHHQHFLQRMRQLI
notes: CopS, sensor histidine kinase of the two-component system CopRS, Pseudomonas aeruginosa PAO1; periplasmic sensor domain, residues 34-151, amplified from genomic DNA; The His6 tag is joined by a TEV cleavage site, and the tag was not cleaved; The expected monomer mass is printed as 19 kDa, which is more than residues 34-151 plus the tag would give, so the pBAD-topo vector may add residues …
As usually defined, the stoichiometry N is a count of units in the complex or per binding partner. On to B1, for which the “stoichiometry N” value turned out to be 2.

For the origin of these results see article PMC7763554, “The Two-Component System CopRS Maintains Subfemtomolar Levels of Free Copper in the Periplasm of Pseudomonas aeruginosa Using a Phosphatase-Based Mechanism” (mSphere, 2020).
